Results from publication PMC11950852, “Diversity Scale of Library Matters: Impact of mRNA Library Diversity Scales on the Discovery of Macrocyclic Peptides Targeting a Protein by the RaPID System” (ACS Central Science, 2025).
Bridges are numbered along the chain shown (N, C = ends). Where no end group is shown, it is not given here.

T1: ectodomain of MET fused to Fc (UniProt P08581 25-932)
T1 chain: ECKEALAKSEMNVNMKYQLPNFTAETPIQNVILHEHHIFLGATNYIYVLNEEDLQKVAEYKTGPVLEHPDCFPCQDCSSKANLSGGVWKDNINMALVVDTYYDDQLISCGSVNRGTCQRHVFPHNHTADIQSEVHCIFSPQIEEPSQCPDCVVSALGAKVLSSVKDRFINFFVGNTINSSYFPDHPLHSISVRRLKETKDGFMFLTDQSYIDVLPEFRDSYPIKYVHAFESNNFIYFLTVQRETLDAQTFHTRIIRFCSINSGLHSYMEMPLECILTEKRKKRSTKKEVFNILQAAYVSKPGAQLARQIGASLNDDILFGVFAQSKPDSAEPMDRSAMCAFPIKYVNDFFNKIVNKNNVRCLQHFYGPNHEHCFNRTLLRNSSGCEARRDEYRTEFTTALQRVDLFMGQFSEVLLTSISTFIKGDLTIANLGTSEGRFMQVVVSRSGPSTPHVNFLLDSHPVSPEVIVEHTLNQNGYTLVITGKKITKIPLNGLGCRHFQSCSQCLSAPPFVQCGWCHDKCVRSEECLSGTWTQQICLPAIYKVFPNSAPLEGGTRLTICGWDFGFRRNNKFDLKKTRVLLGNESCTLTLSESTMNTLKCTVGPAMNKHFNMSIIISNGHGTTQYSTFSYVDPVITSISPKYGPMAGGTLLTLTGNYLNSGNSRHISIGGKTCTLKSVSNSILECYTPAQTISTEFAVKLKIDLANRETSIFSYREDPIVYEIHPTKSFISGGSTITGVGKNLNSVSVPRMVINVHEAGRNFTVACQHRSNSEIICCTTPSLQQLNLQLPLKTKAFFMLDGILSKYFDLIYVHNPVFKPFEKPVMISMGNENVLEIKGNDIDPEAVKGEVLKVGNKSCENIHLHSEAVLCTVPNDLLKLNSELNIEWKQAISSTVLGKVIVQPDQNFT

B1: aML5 (peptide)
peptide: {CH2CO}-YISWNEFNSPNWRFITCG-NH2
modifications: thioether N-17
SMILES: CC[C@H](C)[C@@H]1NC(=O)[C@H](Cc2ccc(O)cc2)NC(=O)CSC[C@@H](C(=O)NCC(N)=O)NC(=O)[C@H]([C@@H](C)O)NC(=O)[C@H]([C@@H](C)CC)NC(=O)[C@H](Cc2ccccc2)NC(=O)[C@H](CCCNC(=N)N)NC(=O)[C@H](Cc2c[nH]c3ccccc23)NC(=O)[C@H](CC(N)=O)NC(=O)[C@@H]2CCCN2C(=O)[C@H](CO)NC(=O)[C@H](CC(N)=O)NC(=O)[C@H](Cc2ccccc2)NC(=O)[C@H](CCC(=O)O)NC(=O)[C@H](CC(N)=O)NC(=O)[C@H](Cc2c[nH]c3ccccc23)NC(=O)[C@H](CO)NC1=O
notes: Benchmark macrocycle from an earlier RaPID selection; measured again here; also called 17-mer aML5
B2: 12–4 (peptide)
chain: {CH2CO}-YNCLWVECKIVLPNGRCG
modifications: disulfide 8-17; thioether N-3
B3: 12–1 (peptide)
chain: {CH2CO}-YISWFAYASKDWFVRPCG-NH2
modifications: thioether N-17
SMILES: CC[C@H](C)[C@@H]1NC(=O)[C@H](Cc2ccc(O)cc2)NC(=O)CSC[C@@H](C(=O)NCC(N)=O)NC(=O)[C@@H]2CCCN2C(=O)[C@H](CCCNC(=N)N)NC(=O)[C@H](C(C)C)NC(=O)[C@H](Cc2ccccc2)NC(=O)[C@H](Cc2c[nH]c3ccccc23)NC(=O)[C@H](CC(=O)O)NC(=O)[C@H](CCCCN)NC(=O)[C@H](CO)NC(=O)[C@H](C)NC(=O)[C@H](Cc2ccc(O)cc2)NC(=O)[C@H](C)NC(=O)[C@H](Cc2ccccc2)NC(=O)[C@H](Cc2c[nH]c3ccccc23)NC(=O)[C@H](CO)NC1=O
B4: 6–2 (peptide)
chain: {CH2CO}-YFYYNWTNVAKWAKTLCG
modifications: thioether N-17 (inferred)
B5: 14–5 (peptide)
chain: {CH2CO}-YLSWKYYDSSDWVILSCG-NH2
modifications: thioether N-17
SMILES: CC[C@H](C)[C@@H]1NC(=O)[C@H](C(C)C)NC(=O)[C@H](Cc2c[nH]c3ccccc23)NC(=O)[C@H](CC(=O)O)NC(=O)[C@H](CO)NC(=O)[C@H](CO)NC(=O)[C@H](CC(=O)O)NC(=O)[C@H](Cc2ccc(O)cc2)NC(=O)[C@H](Cc2ccc(O)cc2)NC(=O)[C@H](CCCCN)NC(=O)[C@H](Cc2c[nH]c3ccccc23)NC(=O)[C@H](CO)NC(=O)[C@H](CC(C)C)NC(=O)[C@H](Cc2ccc(O)cc2)NC(=O)CSC[C@@H](C(=O)NCC(N)=O)NC(=O)[C@H](CO)NC(=O)[C@H](CC(C)C)NC1=O
B6: 14–4 (peptide)
chain: {CH2CO}-YYSWTGRDFDAVKWNKCG-NH2
modifications: thioether N-17
SMILES: CC(C)[C@@H]1NC(=O)[C@H](C)NC(=O)[C@H](CC(=O)O)NC(=O)[C@H](Cc2ccccc2)NC(=O)[C@H](CC(=O)O)NC(=O)[C@H](CCCNC(=N)N)NC(=O)CNC(=O)[C@H]([C@@H](C)O)NC(=O)[C@H](Cc2c[nH]c3ccccc23)NC(=O)[C@H](CO)NC(=O)[C@H](Cc2ccc(O)cc2)NC(=O)[C@H](Cc2ccc(O)cc2)NC(=O)CSC[C@@H](C(=O)NCC(N)=O)NC(=O)[C@H](CCCCN)NC(=O)[C@H](CC(N)=O)NC(=O)[C@H](Cc2c[nH]c3ccccc23)NC(=O)[C@H](CCCCN)NC1=O
B7: 14–2 (peptide)
chain: {CH2CO}-YYSWSGKDVDSVIWNNCG-NH2
modifications: thioether N-17
SMILES: CC[C@H](C)[C@@H]1NC(=O)[C@H](C(C)C)NC(=O)[C@H](CO)NC(=O)[C@H](CC(=O)O)NC(=O)[C@H](C(C)C)NC(=O)[C@H](CC(=O)O)NC(=O)[C@H](CCCCN)NC(=O)CNC(=O)[C@H](CO)NC(=O)[C@H](Cc2c[nH]c3ccccc23)NC(=O)[C@H](CO)NC(=O)[C@H](Cc2ccc(O)cc2)NC(=O)[C@H](Cc2ccc(O)cc2)NC(=O)CSC[C@@H](C(=O)NCC(N)=O)NC(=O)[C@H](CC(N)=O)NC(=O)[C@H](CC(N)=O)NC(=O)[C@H](Cc2c[nH]c3ccccc23)NC1=O
B8: 14–1 (peptide)
chain: {CH2CO}-YWVYGFGKLNNDWRAFCG
modifications: thioether N-17 (inferred)
B9: 14–3 (peptide)
chain: {CH2CO}-YLSWSEFDSKNWSLAYCG-NH2
modifications: thioether N-17
SMILES: CC(C)C[C@@H]1NC(=O)[C@H](CO)NC(=O)[C@H](Cc2c[nH]c3ccccc23)NC(=O)[C@H](CC(N)=O)NC(=O)[C@H](CCCCN)NC(=O)[C@H](CO)NC(=O)[C@H](CC(=O)O)NC(=O)[C@H](Cc2ccccc2)NC(=O)[C@H](CCC(=O)O)NC(=O)[C@H](CO)NC(=O)[C@H](Cc2c[nH]c3ccccc23)NC(=O)[C@H](CO)NC(=O)[C@H](CC(C)C)NC(=O)[C@H](Cc2ccc(O)cc2)NC(=O)CSC[C@@H](C(=O)NCC(N)=O)NC(=O)[C@H](Cc2ccc(O)cc2)NC(=O)[C@H](C)NC1=O
B10: 12–5 (peptide)
chain: {CH2CO}-YLVWHEYDSKKWYFSLCG-NH2
modifications: thioether N-17
SMILES: CC(C)C[C@@H]1NC(=O)[C@H](CO)NC(=O)[C@H](Cc2ccccc2)NC(=O)[C@H](Cc2ccc(O)cc2)NC(=O)[C@H](Cc2c[nH]c3ccccc23)NC(=O)[C@H](CCCCN)NC(=O)[C@H](CCCCN)NC(=O)[C@H](CO)NC(=O)[C@H](CC(=O)O)NC(=O)[C@H](Cc2ccc(O)cc2)NC(=O)[C@H](CCC(=O)O)NC(=O)[C@H](Cc2c[nH]cn2)NC(=O)[C@H](Cc2c[nH]c3ccccc23)NC(=O)[C@H](C(C)C)NC(=O)[C@H](CC(C)C)NC(=O)[C@H](Cc2ccc(O)cc2)NC(=O)CSC[C@@H](C(=O)NCC(N)=O)NC1=O
B11: 14–6 (peptide)
chain: {CH2CO}-YIEWYVYDSKSWVYVRCG-NH2
modifications: thioether N-17
SMILES: CC[C@H](C)[C@@H]1NC(=O)[C@H](Cc2ccc(O)cc2)NC(=O)CSC[C@@H](C(=O)NCC(N)=O)NC(=O)[C@H](CCCNC(=N)N)NC(=O)[C@H](C(C)C)NC(=O)[C@H](Cc2ccc(O)cc2)NC(=O)[C@H](C(C)C)NC(=O)[C@H](Cc2c[nH]c3ccccc23)NC(=O)[C@H](CO)NC(=O)[C@H](CCCCN)NC(=O)[C@H](CO)NC(=O)[C@H](CC(=O)O)NC(=O)[C@H](Cc2ccc(O)cc2)NC(=O)[C@H](C(C)C)NC(=O)[C@H](Cc2ccc(O)cc2)NC(=O)[C@H](Cc2c[nH]c3ccccc23)NC(=O)[C@H](CCC(=O)O)NC1=O
B12: macrocyclic peptide 10-4 (peptide)
chain: {CH2CO}-YIEWNRFNSKLWNCNCCG-NH2
modifications: thioether N-17; cysteine pairing not given here
B13: macrocyclic peptide 10-2 (peptide)
chain: {CH2CO}-YWYYTFDGRWKEYGAACG-NH2
modifications: thioether N-17
SMILES: C[C@@H]1NC(=O)CNC(=O)[C@H](Cc2ccc(O)cc2)NC(=O)[C@H](CCC(=O)O)NC(=O)[C@H](CCCCN)NC(=O)[C@H](Cc2c[nH]c3ccccc23)NC(=O)[C@H](CCCNC(=N)N)NC(=O)CNC(=O)[C@H](CC(=O)O)NC(=O)[C@H](Cc2ccccc2)NC(=O)[C@H]([C@@H](C)O)NC(=O)[C@H](Cc2ccc(O)cc2)NC(=O)[C@H](Cc2ccc(O)cc2)NC(=O)[C@H](Cc2c[nH]c3ccccc23)NC(=O)[C@H](Cc2ccc(O)cc2)NC(=O)CSC[C@@H](C(=O)NCC(N)=O)NC(=O)[C@H](C)NC1=O

Target: T2, ectodomain of MET fused to Fc (UniProt P08581 25-932)
T2 construct: MET (hepatocyte growth factor receptor), a receptor tyrosine kinase; also called MET-Fc; Fc-tagged MET
Test: SPR; fitted by a 1:1 binding model; who was immobilised and the conditions are in the Supporting Information (not shown)
Settings: both partners purified

For B1, the Kd was 11.2 nM.

Point of comparison: B4, koff 0.0074 s⁻¹. Against it:
- B2 — within 1.5-fold, 0.00721 s⁻¹
- B3 — 2.9-fold lower, 0.00254 s⁻¹

Target: T1, ectodomain of MET fused to Fc
Test: SPR
Settings: not given

Point of comparison: B9, koff 0.00297 s⁻¹. Against it:
- B5 — 2.8-fold higher, 0.00836 s⁻¹
- B6 — 1.5-fold lower, 0.00198 s⁻¹
- B7 — 1.6-fold lower, 0.00182 s⁻¹
- B8 — 4-fold lower, 0.000739 s⁻¹
- B1 — 2-fold higher, 0.00606 s⁻¹
- B10 — within 1.5-fold, 0.002 s⁻¹
- B11 — 1.9-fold higher, 0.00564 s⁻¹

Target: T3, ectodomain of MET (hepatocyte growth factor receptor) fused to Fc (UniProt P08581 25-932)
T3 construct: MET, hepatocyte growth factor receptor, a receptor tyrosine kinase; ectodomain; also called MET-Fc; Fc-tagged MET
Test: SPR; macrocyclic peptides on MET; concentration-dependent sensorgrams fitted by a 1:1 binding model
Settings: both partners purified

Point of comparison: B13, Kd 31 nM. Against it:
- B12 — 9.9-fold higher, 308 nM

Target: T1, ectodomain of MET fused to Fc
Test: SPR
Settings: not given
Remark: another data set of the same source

Point of comparison: B3, Kd 32 nM. Against it:
- B5 — 2-fold higher, 64.7 nM
- B6 — 13-fold lower, 2.49 nM
- B7 — 8.1-fold lower, 3.93 nM
- B8 — 11-fold lower, 2.87 nM
- B9 — within 1.5-fold, 35 nM
- B2 — 2-fold lower, 15.8 nM
- B10 — 2.1-fold lower, 15.4 nM
- B4 — 3.2-fold higher, 102 nM
- B11 — within 1.5-fold, 31.5 nM
